Literature values in US6153653A, “Choline compositions and uses thereof” (Protarga, Inc., priority 1997, dated 2000).

Conditions: relative to native tPA

B1: C84S tPA: tPA variants in which a cysteine at position 84 of the growth factor domain of native tPA is replaced by serine (protein, UniProt P00750 36-562, looked up, variant C84S)
Tissue-type plasminogen …: SYQVICRDEKTQMIYQQHQSWLRPVLRSNRVEYCWCNSGRAQCHSVPVKSCSEPRCFNGGTCQQALYFSDFVCQCPEGFAGKCSEIDTRATCYEDQGISYRGTWSTAESGAECTNWNSSALAQKPYSGRRPDAIRLGLGNHNYCRNPDRDSKPWCYVFKAGKYSSEFCSTPACSEGNSDCYFGNGSAYRGTHSLTESGASCLPWNSMILIGKVYTAQNPSAQALGLGKHNYCRNPDGDAKPWCHVLKNRRLTWEYCDVPSCSTCGLRQYSQPQFRIKGGLFADIASHPWQAAIFAKHRRSPGERFLCGGILISSCWILSAAHCFQERFPPHHLTVILGRTYRVVPGEEEQKFEVEKYIVHKEFDDDTYDNDIALLQLKSDSSRCAQESSVVRTVCLPPADLQLPDWTECELSGYGKHEALSPFYSERLKEAHVRLYPSSRCTSQHLLNRTVTDNMLCAGDTRSGGPQANLHDACQGDSGGPLVCLNDGRMTLVGIISWGLGCGQKDVPGVYTKVTNYLDWIRDNMRP
In vivo
  in vivo half life (in words): longer in vivo half life than native tPA
  functional activity (in words): retains the functional activity of native tPA
